Measured values from paper doi:10.1101/797431 (bioRxiv, 2019).

Target: E. coli RecQ helicase, wild type (E. coli, UniProt P15043 1-609)
Assay: fluorescence polarisation

E. coli RecQ helicase, wild type, sequence (P15043 whole entry): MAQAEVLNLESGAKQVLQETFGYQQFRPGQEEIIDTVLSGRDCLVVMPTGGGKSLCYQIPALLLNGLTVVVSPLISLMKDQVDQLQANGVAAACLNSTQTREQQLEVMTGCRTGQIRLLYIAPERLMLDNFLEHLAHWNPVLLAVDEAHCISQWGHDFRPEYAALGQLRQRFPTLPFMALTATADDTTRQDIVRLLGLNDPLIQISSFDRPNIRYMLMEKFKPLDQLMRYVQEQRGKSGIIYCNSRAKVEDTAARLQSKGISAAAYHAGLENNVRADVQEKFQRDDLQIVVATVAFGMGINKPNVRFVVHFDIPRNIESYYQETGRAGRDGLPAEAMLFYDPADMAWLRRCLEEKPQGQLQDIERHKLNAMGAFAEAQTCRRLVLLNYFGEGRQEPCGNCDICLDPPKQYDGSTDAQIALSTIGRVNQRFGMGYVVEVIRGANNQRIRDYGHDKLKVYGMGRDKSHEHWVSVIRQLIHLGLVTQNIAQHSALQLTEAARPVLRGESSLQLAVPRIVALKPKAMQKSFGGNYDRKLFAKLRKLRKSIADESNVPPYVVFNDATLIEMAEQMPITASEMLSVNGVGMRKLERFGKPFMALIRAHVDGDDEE

MDFDDDIPF (fluorescein on the N-terminus) [N-terminally fluorescein-labeled SSB C-terminal peptide (Flu-MDFDDDIPF)]
binding result: binds
